In paper PMC10504544, “1-deoxy-D-xylulose-5-phosphate synthase from Pseudomonas aeruginosa and Klebsiella pneumoniae reveals conformational changes upon cofactor binding” (The Journal of Biological Chemistry, 2023):

Tests used:
[1] = substrate: CC(=O)C(=O)O; assay: steady-state kinetics (Km), IspC-coupled assay; format: biochemical, Pseudomonas aeruginosa; settings: ThDP, Mg2+
[2] = substrate: O=CC(O)COP(=O)(O)O; assay: steady-state kinetics (Km), IspC-coupled assay; format: biochemical, Pseudomonas aeruginosa; settings: ThDP, Mg2+

B1: 1-deoxy-D-xylulose-5-phosphate synthase (paDXPS) (Pseudomonas aeruginosa PAO1) (protein)
chain: MPKTLHEIPRERPATPLLDRASSPAELRRLGEADLETLADELRQYLLYTVGQTGGHFGAGLGVVELTIALHYVFDTPDDRLVWDVGHQAYPHKILTERRELMGTLRQKNGLAAFPRRAESEYDTFGVGHSSTSISAALGMAIAARLQGKERKSVAVIGDGALTAGMAFEALNHASEVDADMLVILNDNDMSISHNVGGLSNYLAKILSSRTYSSMREGSKKVLSRLPGAWEIARRTEEYAKGMLVPGTLFEELGWNYIGPIDGHDLPTLVATLRNMRDMKGPQFLHVVTKKGKGFAPAELDPIGYHAITKLEAPGSAPKKTGGPKYSSVFGQWLCDMAAQDARLLGITPAMKEGSDLVAFSERYPERYFDVAIAEQHAVTLAAGMACEGMKPVVAIYSTFLQRAYDQLIHDVAVQHLDVLFAIDRAGLVGEDGPTHAGSFDISYLRCIPGMLVMTPSDEDELRKLLTTGYLFDGPAAVRYPRGSGPNHPIDPDLQPVEIGKGVVRRRGGRVALLVFGVQLAEAMKVAESLDATVVDMRFVKPLDEALVRELAGSHELLVTIEENAVMGGAGSAVGEFLASEGLEVPLLQLGLPDYYVEHAKPSEMLAECGLDAAGIEKAVRQRLDRQ
[1]
  Km: 184 ± 25 µM
[2]
  Km: 357 ± 77 µM
